# Data as given in the PETadex activity labels (doi:10.1042/bj20021862).
# Substrate: Acetylcholine
# Conditions: pH 7; 22 °C
Protein,Km [µM],kcat [s⁻¹],kcat/Km [M⁻¹ s⁻¹]
unnamed (protein) MRPPWYPLHTPSLAFPLLFLLLSLLGGGARAEGREDPQLLVRVRGGQLRGIRLKAPGGPVSAFLGIPFAEPPVGSRRFMPPEPKRPWSGVLDATTFQNVCYQYVDTLYPGFEGTEMWNPNRELSEDCLYLNVWTPYPRPASPTPVLIWIYGGGFYSGAASLDVYDGRFLAQVEGAVLVSMNYRVGTFGFLALPGSREAPGNVGLLDQRLALQWVQENIAAFGGDPMSVTLFGESAGAASVGMHILSLPSRSLFHRAVLQSGTPNGPWATVSAGEARRRATLLARLVGCPPGGAGGNDTELIACLRTRPAQDLVDHEWHVLPQESIFRFSFVPVVDGDFLSDTPEALINTGDFQDLQVLVGVVKDEGSYFLVYGVPGFSKDNESLISRAQFLAGVRIGVPQASDLAAEAVVLHYTDWLHPEDPTHLRDAMSAVVGDHNVVCPVAQLAGRLAAQGARVYAYIFEHRASTLTWPLWMGVPHGYEIEFIFGLPLDPSLNYTTEERIFAQRLMKYWTNFARTGDPNDPRDSKSPQWPPYTTAAQQYVSLNLKPLEVRRGLRAQTCAFWNRFLPKLLSATDTLDEAERQWKAEFHRWSSYMVHWKNQFDHYSKQERCSDL,47,2500,5.32e+07
unnamed (protein) MRPPWYPLHTPSLAFPLLFLLLSLLGGGARAEGREDPQLLVRVRGGQLRGIRLKAPGGPVSAFLGIPFAEPPVGSRRFMPPEPKRPWSGVLDATTFQNVCYQYVDTLYPGFEGTEMWNPNRELSEDCLYLNVWTPYPRPASPTPVLIWIYGGGFYSGAASLDVYDGRFLAQVEGAVLVSMNYRVGTFGFLALPGSREAPGNVGLLDQRLALQWVQENIAAFGGDPMSVTLFGESAGAASVGMHILSLPSRSLFHRAVLQSGTPNGPWATVSAGEARRRATLLARLVGCPPGGAGGNDTELIACLRTRPAQDLVDHEWHVLPQESILRASFVPVVDGDFLSDTPEALINTGDFQDLQVLVGVVKDEGSAFLVYGVPGFSKDNESLISRAQFLAGVRIGVPQASDLAAEAVVLHYTDWLHPEDPTHLRDAMSAVVGDHNVVCPVAQLAGRLAAQGARVYAYIFEHRASTLTWPLWMGVPHGYEIEFIFGLPLDPSLNYTTEERIFAQRLMKYWTNFARTGDPNDPRDSKSPQWPPYTTAAQQYVSLNLKPLEVRRGLRAQTCAFWNRFLPKLLSATDTLDEAERQWKAEFHRWSSYMVHWKNQFDHYSKQERCSDL,190,183,965000
unnamed (protein) MRPPWYPLHTPSLAFPLLFLLLSLLGGGARAEGREDPQLLVRVRGGQLRGIRLKAPGGPVSAFLGIPFAEPPVGSRRFMPPEPKRPWSGVLDATTFQNVCYQYVDTLYPGFEGTEMWNPNRELSEDCLYLNVWTPYPRPASPTPVLIWIYGGGFYSGAASLDVYDGRFLAQVEGAVLVSMNYRVGTFGFLALPGSREAPGNVGLLDQRLALQWVQENIAAFGGDPMSVTLFGQSAGAASVGMHILSLPSRSLFHRAVLQSGTPNGPWATVSAGEARRRATLLARLVGCPPGGAGGNDTELIACLRTRPAQDLVDHEWHVLPQESILRFSFVPVVDGDFLSDTPEALINTGDFQDLQVLVGVVKDEGSAFLVYGVPGFSKDNESLISRAQFLAGVRIGVPQASDLAAEAVVLHYTDWLHPEDPTHLRDAMSAVVGDHNVVCPVAQLAGRLAAQGARVYAYIFEHRASTLTWPLWMGVPHGYEIEFIFGLPLDPSLNYTTEERIFAQRLMKYWTNFARTGDPNDPRDSKSPQWPPYTTAAQQYVSLNLKPLEVRRGLRAQTCAFWNRFLPKLLSATDTLDEAERQWKAEFHRWSSYMVHWKNQFDHYSKQERCSDL,100,167,1.67e+06
unnamed (protein) MRPPWYPLHTPSLAFPLLFLLLSLLGGGARAEGREDPQLLVRVRGGQLRGIRLKAPGGPVSAFLGIPFAEPPVGSRRFMPPEPKRPWSGVLDATTFQNVCYQYVDTLYPGFEGTEMWNPNRELSEDCLYLNVWTPYPRPASPTPVLIWIYGGGFYSGAASLDVYDGRFLAQVEGAVLVSMNYRVGTFGFLALPGSREAPGNVGLLDQRLALQWVQENIAAFGGDPMSVTLFGESAGAASVGMHILSLPSRSLFHRAVLQSGTPNGPWATVSAGEARRRATLLARLVGCPPGGAGGNDTELIACLRTRPAQDLVDHEWHVLPQESIFRLSFVPVVDGDFLSDTPEALINTGDFQDLQVLVGVVKDEGSAFLVYGVPGFSKDNESLISRAQFLAGVRIGVPQASDLAAEAVVLHYTDWLHPEDPTHLRDAMSAVVGDHNVVCPVAQLAGRLAAQGARVYAYIFEHRASTLTWPLWMGVPHGYEIEFIFGLPLDPSLNYTTEERIFAQRLMKYWTNFARTGDPNDPRDSKSPQWPPYTTAAQQYVSLNLKPLEVRRGLRAQTCAFWNRFLPKLLSATDTLDEAERQWKAEFHRWSSYMVHWKNQFDHYSKQERCSDL,100,667,6.67e+06
unnamed (protein) MRPPWYPLHTPSLAFPLLFLLLSLLGGGARAEGREDPQLLVRVRGGQLRGIRLKAPGGPVSAFLGIPFAEPPVGSRRFMPPEPKRPWSGVLDATTFQNVCYQYVDTLYPGFEGTEMWNPNRELSEDCLYLNVWTPYPRPASPTPVLIWIYGGGFYSGAASLDVYDGRFLAQVEGAVLVSMNYRVGTFGFLALPGSREAPGNVGLLDQRLALQWVQENIAAFGGDPMSVTLFGESAGAASVGMHILSLPSRSLFHRAVLQSGTPNGPWATVSAGEARRRATLLARLVGCPPGGAGGNDTELIACLRTRPAQDLVDHEWHVLPQESIFRISFVPVVDGDFLSDTPEALINTGDFQDLQVLVGVVKDEGSAFLVYGVPGFSKDNESLISRAQFLAGVRIGVPQASDLAAEAVVLHYTDWLHPEDPTHLRDAMSAVVGDHNVVCPVAQLAGRLAAQGARVYAYIFEHRASTLTWPLWMGVPHGYEIEFIFGLPLDPSLNYTTEERIFAQRLMKYWTNFARTGDPNDPRDSKSPQWPPYTTAAQQYVSLNLKPLEVRRGLRAQTCAFWNRFLPKLLSATDTLDEAERQWKAEFHRWSSYMVHWKNQFDHYSKQERCSDL,340,233,686000
